pIC50: −log10 of the molar value.
Key:
[1] = target: HLA-A*02:01; assay: IEDB peptide-MHC binding, cellular MHC/competitive/fluorescence; ≥ and ≤ were set here for values at or beyond the usual limits of such assays
[2] = target: HLA-A*02:06; assay: as above
[3] = target: HLA-A*02:02; assay: IEDB peptide-MHC binding, purified MHC/competitive/radioactivity; ≥ and ≤ were set here for values at or beyond the usual limits of such assays
[4] = target: HLA-A*02:03; assay: as above
[5] = target: HLA-A*68:02; assay: as above
[6] = target: HLA-A*68:02; assay: IEDB peptide-MHC binding, cellular MHC/competitive/fluorescence; ≥ and ≤ were set here for values at or beyond the usual limits of such assays
[7] = target: HLA-A*02:01; assay: IEDB peptide-MHC binding, purified MHC/competitive/radioactivity; ≥ and ≤ were set here for values at or beyond the usual limits of such assays
[8] = source organism: Vaccinia virus WR
[9] = source organism: Hepacivirus hominis
[10] = source organism: Mammarenavirus lassaense
[11] = source organism: Mammarenavirus brazilense
[12] = source organism: Mammarenavirus whitewaterense
[13] = source organism: Influenza A virus

Sequence | pIC50 [1, 8] | pIC50 [2, 8] | pIC50 [3, 8] | pIC50 [4, 8] | pIC50 [5, 8] | pIC50 [6, 8] | pIC50 [7, 8] | other results
ITHTNITTLL | 4.93 | 4.83 | 5.77 | 7.00 | 6.51 |  |  | 
RLRYNLCKYL |  | 4.80 | 6.58 | 9.52 |  | 4.72 | 5.49 | 
LMELPVKTDI |  | 4.89 | 5.82 | 6.01 |  | ≤ 4.15 | 5.88 | 
YVLLLFLLLA |  |  |  |  |  |  |  | pIC50 [2, 9]: 5.23; pIC50 [6, 9]: 4.92; pIC50 [7, 9]: 6.06; pIC50 [3, 9]: 5.98; pIC50 [4, 9]: 6.14
RLYNSLKRFT |  | 5.14 | 5.98 | 6.35 |  | 4.84 | 6.06 | 
FTSYKRFVT | ≤ 4.15 | 4.91 | 5.63 | 5.47 | 6.34 |  |  | 
GLTTHCTKL |  | 4.50 | 7.00 | 7.52 |  | ≤ 4.15 | 6.21 | 
KLKVDSDSGL |  | 5.00 | 7.12 | 7.25 |  | 4.55 | 5.63 | 
IAVANCVRNL | 4.87 | 5.04 | 7.24 | 6.33 | 6.33 |  |  | 
YCSNIKLQVV |  |  |  |  |  |  |  | pIC50 [1, 10]: 5.07; pIC50 [2, 10]: 5.15; pIC50 [3, 10]: 5.91; pIC50 [4, 10]: 6.10; pIC50 [5, 10]: 5.93
FLVIAINAM |  | ≤ 4.15 |  |  |  | 4.63 |  | 
KCFGNTALA |  |  |  |  |  |  |  | pIC50 [2, 11]: ≤ 4.15; pIC50 [6, 11]: 4.59; pIC50 [7, 11]: 5.48; pIC50 [3, 11]: 7.51; pIC50 [4, 11]: 5.96
GMMQNDYGGM |  | 4.92 | 6.99 | 6.23 |  | 4.58 | 6.15 | 
SMKGENVFI |  | 4.86 | 8.26 | 7.72 |  | 5.03 | 6.21 | 
FLRPVLKAM | 4.93 | 5.26 | 5.86 | 8.01 | 5.61 |  |  | 
CLKNEGVSGL | 5.20 | 4.85 | 6.90 | 7.60 | 5.68 |  |  | 
LRYFIMAYV |  |  |  |  |  |  |  | pIC50 [1, 11]: 4.90; pIC50 [2, 11]: 4.70; pIC50 [3, 11]: 6.67; pIC50 [4, 11]: 6.40; pIC50 [5, 11]: 7.74

Sequence | pIC50 [1, 8] | pIC50 [2, 8] | pIC50 [3, 8] | pIC50 [4, 8] | pIC50 [5, 8] | pIC50 [6, 8] | pIC50 [7, 8] | other results
LLFLVLIMLI |  |  |  |  |  |  |  | pIC50 ([2]; source organism: SARS-CoV1): 5.08; pIC50 ([6]; source organism: SARS-CoV1): 5.29; pIC50 ([7]; source organism: SARS-CoV1): 6.23; pIC50 ([3]; source organism: SARS-CoV1): 6.35; pIC50 ([4]; source organism: SARS-CoV1): 5.50
DTLVKSGLT | ≤ 4.15 | 4.28 | 5.71 | 5.54 | 5.71 |  |  | 
DTGKKELALT |  | 5.17 | 5.98 | 6.58 |  | 5.00 | 5.77 | 
YIRRNMINKL |  | 5.06 | 6.09 | 7.15 |  | 4.86 | 5.42 | 
DMDFDLNIFM |  | 5.27 | 5.94 | 5.30 |  | 5.14 | 5.76 | 
RVKQWVMDT | 4.69 | 4.87 | 5.44 | 8.44 | 6.22 |  |  | 
INISGYNLSL |  |  |  |  |  |  |  | pIC50 [2, 12]: 4.94; pIC50 [6, 12]: 4.76; pIC50 [7, 12]: 5.74; pIC50 [3, 12]: 6.75; pIC50 [4, 12]: 5.87
NLYNIRNL |  |  |  |  |  |  |  | pIC50 [2, 13]: 4.29; pIC50 [6, 13]: 4.81; pIC50 [7, 13]: 5.87; pIC50 [3, 13]: 5.88; pIC50 [4, 13]: 6.73
YLSKEDRII |  | 4.98 | 6.52 | 6.36 |  | ≤ 4.15 | 5.82 | 
ILANERYRSA |  | 5.11 | 6.98 | 7.74 |  | 4.58 | 6.10 | 
IINSVSIIL |  | 4.59 | 6.15 | 5.54 |  | 4.52 | 5.68 | 
EVTPEYIKDL | 5.19 | 5.11 | 5.82 | 5.64 | 5.91 |  |  | 
HMYRGGNGNT | 4.71 | 5.01 | 5.70 | 6.37 | 5.49 |  |  | 
KTVAGSFAS |  |  |  |  |  |  |  | pIC50 [1, 12]: 5.25; pIC50 [2, 12]: 5.04; pIC50 [3, 12]: 5.80; pIC50 [4, 12]: 5.42; pIC50 [5, 12]: 5.52
KVYNGIFVDT | 4.93 | 4.79 | 6.95 | 5.84 | 5.86 |  |  | 
RVNDLNRMPT | 5.14 | 5.11 | 5.87 | 5.84 | 6.20 |  |  | 
GTSGVESAV |  |  |  |  |  |  |  | pIC50 [1, 13]: 4.97; pIC50 [2, 13]: 4.94; pIC50 [3, 13]: 5.96; pIC50 [4, 13]: 5.52; pIC50 [5, 13]: 6.17

Reference: the Immune Epitope Database (IEDB)
